Results published in patent US20140087995A1 (published 2014).
Changes are numbered by the printed parent chain. Numbered stars: 1 amine (or outer) side, 2 acyl side, 3 side chain; on linkers, the order of the positions; unused ones are H or OH. Bridge positions count the residues as written; N and C are the ends. * marks the point of attachment. C20 diacid = O=C(O)CCCCCCCCCCCCCCCCCCC(=O)*; γGlu = O=C(O)[C@H](CCC(=O)[*:2])N[*:1]

B1: N^α1-[2-[2-[2-[[2-[2-[2-[[(4S)-4-carboxy-4-(19-carboxynonadecanoylamino)butanoyl]amino]ethoxy]ethoxy]acetyl]amino]ethoxy]ethoxy]acetyl]-[Glu14,Arg17,Pro21,Pro27 … (peptide)
peptide: KCNTATCATQRLAEFLRHSSPNFGAIPSSTNVGSNTY
modifications: C20 diacid-gGlu-2xOEG on the alpha amino group of the N-terminal residue; disulfide bridge Cys2-Cys7; C-terminal amide
notes: also called compound 19
B2: N{Alpha-1}-[(4S)-4-carboxy-4-(19-carboxynonadecanoylamino)butanoyl]-[Glu14,Arg17,Pro21,Pro27,Lys34]-h-amylin (peptide)
peptide: {C20 diacid-γGlu}-KCNTATCATQRLAEFLRHSSPNFGAIPSSTNVGKNTY-NH2
modifications: disulfide 2-7
SMILES: CC[C@H](C)[C@H](NC(=O)[C@H](C)NC(=O)CNC(=O)[C@H](Cc1ccccc1)NC(=O)[C@H](CC(N)=O)NC(=O)[C@@H]1CCCN1C(=O)[C@H](CO)NC(=O)[C@H](CO)NC(=O)[C@H](Cc1c[nH]cn1)NC(=O)[C@H](CCCNC(=N)N)NC(=O)[C@H](CC(C)C)NC(=O)[C@H](Cc1ccccc1)NC(=O)[C@H](CCC(=O)O)NC(=O)[C@H](C)NC(=O)[C@H](CC(C)C)NC(=O)[C@H](CCCNC(=N)N)NC(=O)[C@H](CCC(N)=O)NC(=O)[C@@H](NC(=O)[C@H](C)NC(=O)[C@@H]1CSSC[C@H](NC(=O)[C@H](CCCCN)NC(=O)CC[C@H](NC(=O)CCCCCCCCCCCCCCCCCCC(=O)O)C(=O)O)C(=O)N[C@@H](CC(N)=O)C(=O)N[C@@H]([C@@H](C)O)C(=O)N[C@@H](C)C(=O)N[C@@H]([C@@H](C)O)C(=O)N1)[C@@H](C)O)C(=O)N1CCC[C@H]1C(=O)N[C@@H](CO)C(=O)N[C@@H](CO)C(=O)N[C@H](C(=O)N[C@@H](CC(N)=O)C(=O)N[C@H](C(=O)NCC(=O)N[C@@H](CCCCN)C(=O)N[C@@H](CC(N)=O)C(=O)N[C@H](C(=O)N[C@@H](Cc1ccc(O)cc1)C(N)=O)[C@@H](C)O)C(C)C)[C@@H](C)O
notes: also called compound 36
B3: N^α1 N^α1-[(4S)-4-carboxy-4-[[(4S)-4-carboxy-4-(19-carboxynonadecanoylamino)butanoyl]amino]butanoyl]-[Glu14,Arg17,Pro21,Pro27]-h-amylin (peptide)
peptide: {C20 diacid-γGlu-γGlu}-KCNTATCATQRLAEFLRHSSPNFGAIPSSTNVGSNTY-NH2
modifications: disulfide 2-7
SMILES: CC[C@H](C)[C@H](NC(=O)[C@H](C)NC(=O)CNC(=O)[C@H](Cc1ccccc1)NC(=O)[C@H](CC(N)=O)NC(=O)[C@@H]1CCCN1C(=O)[C@H](CO)NC(=O)[C@H](CO)NC(=O)[C@H](Cc1c[nH]cn1)NC(=O)[C@H](CCCNC(=N)N)NC(=O)[C@H](CC(C)C)NC(=O)[C@H](Cc1ccccc1)NC(=O)[C@H](CCC(=O)O)NC(=O)[C@H](C)NC(=O)[C@H](CC(C)C)NC(=O)[C@H](CCCNC(=N)N)NC(=O)[C@H](CCC(N)=O)NC(=O)[C@@H](NC(=O)[C@H](C)NC(=O)[C@@H]1CSSC[C@H](NC(=O)[C@H](CCCCN)NC(=O)CC[C@H](NC(=O)CC[C@H](NC(=O)CCCCCCCCCCCCCCCCCCC(=O)O)C(=O)O)C(=O)O)C(=O)N[C@@H](CC(N)=O)C(=O)N[C@@H]([C@@H](C)O)C(=O)N[C@@H](C)C(=O)N[C@@H]([C@@H](C)O)C(=O)N1)[C@@H](C)O)C(=O)N1CCC[C@H]1C(=O)N[C@@H](CO)C(=O)N[C@@H](CO)C(=O)N[C@H](C(=O)N[C@@H](CC(N)=O)C(=O)N[C@H](C(=O)NCC(=O)N[C@@H](CO)C(=O)N[C@@H](CC(N)=O)C(=O)N[C@H](C(=O)N[C@@H](Cc1ccc(O)cc1)C(N)=O)[C@@H](C)O)C(C)C)[C@@H](C)O
notes: also called compound 15
B4: N^α1-[(4S)-4-carboxy-4-(19-carboxynonadecanoylamino)butanoyl]-[Arg17,Pro21,Pro27,Arg34]-h-amylin (peptide)
peptide: B1 peptide with E14N, S34R
modifications: C20 diacid-gGlu on the alpha amino group of the N-terminal residue; Cys2-Cys7 disulfide and C-terminal amide as in human amylin
notes: also called compound 39
B5: N^α1-[(4S)-4-carboxy-4-(19-carboxynonadecanoylamino)butanoyl]-[Glu14,Arg17,Pro21,Pro27,Arg35]-h-amylin (peptide)
peptide: {C20 diacid-γGlu}-KCNTATCATQRLAEFLRHSSPNFGAIPSSTNVGSRTY-NH2
modifications: disulfide 2-7
SMILES: CC[C@H](C)[C@H](NC(=O)[C@H](C)NC(=O)CNC(=O)[C@H](Cc1ccccc1)NC(=O)[C@H](CC(N)=O)NC(=O)[C@@H]1CCCN1C(=O)[C@H](CO)NC(=O)[C@H](CO)NC(=O)[C@H](Cc1c[nH]cn1)NC(=O)[C@H](CCCNC(=N)N)NC(=O)[C@H](CC(C)C)NC(=O)[C@H](Cc1ccccc1)NC(=O)[C@H](CCC(=O)O)NC(=O)[C@H](C)NC(=O)[C@H](CC(C)C)NC(=O)[C@H](CCCNC(=N)N)NC(=O)[C@H](CCC(N)=O)NC(=O)[C@@H](NC(=O)[C@H](C)NC(=O)[C@@H]1CSSC[C@H](NC(=O)[C@H](CCCCN)NC(=O)CC[C@H](NC(=O)CCCCCCCCCCCCCCCCCCC(=O)O)C(=O)O)C(=O)N[C@@H](CC(N)=O)C(=O)N[C@@H]([C@@H](C)O)C(=O)N[C@@H](C)C(=O)N[C@@H]([C@@H](C)O)C(=O)N1)[C@@H](C)O)C(=O)N1CCC[C@H]1C(=O)N[C@@H](CO)C(=O)N[C@@H](CO)C(=O)N[C@H](C(=O)N[C@@H](CC(N)=O)C(=O)N[C@H](C(=O)NCC(=O)N[C@@H](CO)C(=O)N[C@@H](CCCNC(=N)N)C(=O)N[C@H](C(=O)N[C@@H](Cc1ccc(O)cc1)C(N)=O)[C@@H](C)O)C(C)C)[C@@H](C)O
notes: also called compound 16
B6: N^α1-[(4S)-4-carboxy-4-(19-carboxynonadecanoylamino)butanoyl]-[Arg17,Pro21,Pro27,His34]-h-amylin (peptide)
peptide: B1 peptide with E14N, S34H
modifications: C20 diacid-gGlu on the alpha amino group of the N-terminal residue; Cys2-Cys7 disulfide and C-terminal amide as in human amylin
notes: also called compound 40
B7: N^α1-[(4S)-4-carboxy-4-(19-carboxynonadecanoylamino)butanoyl]-[Arg17,Pro21,Pro27,Glu35]-h-amylin (peptide)
peptide: B1 peptide with E14N, N35E
modifications: C20 diacid-gGlu on the alpha amino group of the N-terminal residue; Cys2-Cys7 disulfide and C-terminal amide as in human amylin
notes: also called compound 23
B8: N^α1-[(4S)-4-carboxy-4-(19-carboxynonadecanoylamino)butanoyl]-[Glu14,Arg17,Pro21,Pro27,Pro31]-h-amylin (peptide)
peptide: {C20 diacid-γGlu}-KCNTATCATQRLAEFLRHSSPNFGAIPSSTPVGSNTY-NH2
modifications: disulfide 2-7
SMILES: CC[C@H](C)[C@H](NC(=O)[C@H](C)NC(=O)CNC(=O)[C@H](Cc1ccccc1)NC(=O)[C@H](CC(N)=O)NC(=O)[C@@H]1CCCN1C(=O)[C@H](CO)NC(=O)[C@H](CO)NC(=O)[C@H](Cc1c[nH]cn1)NC(=O)[C@H](CCCNC(=N)N)NC(=O)[C@H](CC(C)C)NC(=O)[C@H](Cc1ccccc1)NC(=O)[C@H](CCC(=O)O)NC(=O)[C@H](C)NC(=O)[C@H](CC(C)C)NC(=O)[C@H](CCCNC(=N)N)NC(=O)[C@H](CCC(N)=O)NC(=O)[C@@H](NC(=O)[C@H](C)NC(=O)[C@@H]1CSSC[C@H](NC(=O)[C@H](CCCCN)NC(=O)CC[C@H](NC(=O)CCCCCCCCCCCCCCCCCCC(=O)O)C(=O)O)C(=O)N[C@@H](CC(N)=O)C(=O)N[C@@H]([C@@H](C)O)C(=O)N[C@@H](C)C(=O)N[C@@H]([C@@H](C)O)C(=O)N1)[C@@H](C)O)C(=O)N1CCC[C@H]1C(=O)N[C@@H](CO)C(=O)N[C@@H](CO)C(=O)N[C@H](C(=O)N1CCC[C@H]1C(=O)N[C@H](C(=O)NCC(=O)N[C@@H](CO)C(=O)N[C@@H](CC(N)=O)C(=O)N[C@H](C(=O)N[C@@H](Cc1ccc(O)cc1)C(N)=O)[C@@H](C)O)C(C)C)[C@@H](C)O
notes: also called compound 31
B9: N^α1-[(4S)-4-carboxy-4-(19-carboxynonadecanoylamino)butanoyl]-[Arg17,Pro21,Pro27,Pro31,Glu35]-h-amylin (peptide)
peptide: {C20 diacid-γGlu}-KCNTATCATQRLANFLRHSSPNFGAIPSSTPVGSETY-NH2
modifications: disulfide 2-7
SMILES: CC[C@H](C)[C@H](NC(=O)[C@H](C)NC(=O)CNC(=O)[C@H](Cc1ccccc1)NC(=O)[C@H](CC(N)=O)NC(=O)[C@@H]1CCCN1C(=O)[C@H](CO)NC(=O)[C@H](CO)NC(=O)[C@H](Cc1c[nH]cn1)NC(=O)[C@H](CCCNC(=N)N)NC(=O)[C@H](CC(C)C)NC(=O)[C@H](Cc1ccccc1)NC(=O)[C@H](CC(N)=O)NC(=O)[C@H](C)NC(=O)[C@H](CC(C)C)NC(=O)[C@H](CCCNC(=N)N)NC(=O)[C@H](CCC(N)=O)NC(=O)[C@@H](NC(=O)[C@H](C)NC(=O)[C@@H]1CSSC[C@H](NC(=O)[C@H](CCCCN)NC(=O)CC[C@H](NC(=O)CCCCCCCCCCCCCCCCCCC(=O)O)C(=O)O)C(=O)N[C@@H](CC(N)=O)C(=O)N[C@@H]([C@@H](C)O)C(=O)N[C@@H](C)C(=O)N[C@@H]([C@@H](C)O)C(=O)N1)[C@@H](C)O)C(=O)N1CCC[C@H]1C(=O)N[C@@H](CO)C(=O)N[C@@H](CO)C(=O)N[C@H](C(=O)N1CCC[C@H]1C(=O)N[C@H](C(=O)NCC(=O)N[C@@H](CO)C(=O)N[C@@H](CCC(=O)O)C(=O)N[C@H](C(=O)N[C@@H](Cc1ccc(O)cc1)C(N)=O)[C@@H](C)O)C(C)C)[C@@H](C)O
notes: also called compound 28

Target: T1, human calcitonin receptor (human, UniProt P30988 25-474)
T1 sequence (looked up): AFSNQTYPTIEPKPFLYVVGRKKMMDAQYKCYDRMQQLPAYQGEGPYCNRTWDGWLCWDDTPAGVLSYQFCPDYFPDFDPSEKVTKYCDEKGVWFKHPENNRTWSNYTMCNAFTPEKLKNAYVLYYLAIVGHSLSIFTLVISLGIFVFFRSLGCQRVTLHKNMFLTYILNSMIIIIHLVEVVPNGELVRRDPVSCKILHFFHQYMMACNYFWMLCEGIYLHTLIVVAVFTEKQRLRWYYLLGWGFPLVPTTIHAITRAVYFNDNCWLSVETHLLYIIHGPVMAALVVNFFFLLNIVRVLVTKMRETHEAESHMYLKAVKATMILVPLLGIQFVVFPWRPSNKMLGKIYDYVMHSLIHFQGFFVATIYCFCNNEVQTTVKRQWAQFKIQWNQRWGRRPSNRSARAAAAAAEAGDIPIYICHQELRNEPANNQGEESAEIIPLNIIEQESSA
Assay: cell-based or functional assay

| Binder | Ratio hCT/hAmylin funct. | hCTR funct. EC50 |
| --- | --- | --- |
| B1 | 17.4 | 5.32 nM |
| B2 | 6.8 | 1.28 nM |
| B3 | 8.9 | 3.43 nM |

Target: T2, human amylin receptor (amylin 3(a) receptor: human calcitonin receptor with RAMP-3) (human, UniProt P30988 25-474; O60896 24-148)
T2 sequence (looked up) 1: T1 sequence (looked up)
T2 sequence (looked up) 2: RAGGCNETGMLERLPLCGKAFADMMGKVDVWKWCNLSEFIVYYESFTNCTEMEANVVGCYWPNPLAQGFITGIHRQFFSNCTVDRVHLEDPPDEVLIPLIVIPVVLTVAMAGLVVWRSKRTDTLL
Assay: cell-based or functional assay

| Binder | hAmylin-R funct. EC50 |
| --- | --- |
| B1 | 0.307 nM |
| B2 | 0.189 nM |
| B3 | 0.386 nM |

Target: T3, human calcitonin receptor (human, UniProt P30988 25-474)
T3 sequence (looked up): T1 sequence (looked up)
Assay: cell-based or functional assay

| Binder | Ratio hCT/hAmylin funct. (hCTR EC50 against hAmylin-R EC50) | hCTR funct. EC50 |
| --- | --- | --- |
| B4 | 11.6 | 2.52 nM |
| B5 | 6.1 | 2.21 nM |
| B6 | 16.4 | 2.68 nM |
| B7 | 8.9 | 3.02 nM |
| B8 | 6.4 | 0.717 nM |
| B9 | 9.2 | 2.03 nM |

Target: T4, human amylin receptor (amylin 3(a) receptor: human calcitonin receptor plus RAMP-3) (human, UniProt P30988 25-474; O60896 24-148, limits assumed)
T4 sequence (looked up) 1: T1 sequence (looked up)
T4 sequence (looked up) 2: T2 sequence (looked up) 2
Assay: cell-based or functional assay

| Binder | hAmylin-R funct. EC50 |
| --- | --- |
| B4 | 0.217 nM |
| B5 | 0.363 nM |
| B6 | 0.164 nM |
| B7 | 0.34 nM |
| B8 | 0.112 nM |
| B9 | 0.22 nM |
